The record followed here is the supplement of paper PMC3353916.

± gives the standard deviation of the averaged measurements.

For the series, the system named is Sindbis virus TE/5'2J-GFP. Put plainly: percent infected (GFP+ in RFP+ ISG-expressing cells); higher = more infection (less antiviral activity). The protocol: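 Confirmatory testing of 87 ISGs. Triplicate wells of BHK/HA-Zeo (control) or BHK/NZAP-Zeo (ZAP) cells were transduced with lentiviruses co-expressing a human ISG plus TagRFP, then infected 48 h later with SINV TE/5'2J-GFP (moi 5). The % GFP+ cells among RFP+ cells was measured by flow cytometry at 8 h post infection. Fluc lentivirus served as control. Three independent experiments.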

Where [1] appears, read: experiment: confirmatory screen 1, BHK/HA-Zeo (control).
Setting [2] is: experiment: confirmatory screen 1, BHK/NZAP-Zeo (ZAP).
[3] abbreviates: experiment: confirmatory screen 2, BHK/HA-Zeo (control).
Where [4] appears, read: experiment: confirmatory screen 2, BHK/NZAP-Zeo (ZAP).
Setting [5] is: experiment: confirmatory screen 3, BHK/HA-Zeo (control).
[6] abbreviates: experiment: confirmatory screen 3, BHK/NZAP-Zeo (ZAP).
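Also: Interferon-defective BHK-21 derivatives, ZAP line overexpressing the rat ZAP N-terminal zinc finger domain fused to Zeocin resistance, GFP scored within live singlet TagRFP+ cells.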

For the sequence “MASGRARCTRKLRNWVVEQVESGQFPGVCWDDTAKTMFRIPWKHAGKQDFREDQDAAFFKAWAIFKGKYKEGDTGGPAVWKTRLRCALNKSSEFKEVPERGRMDVAEPYKVYQLLPPGIVSGQPGTQKVPSKRQHSSVSSERKEEEDAMQNCTLSPSVLQDSLNNEEEGASGGAVHSDIGSSSSSSSPEPQEVTDTTEAPFQGDQRSLEFLLPPEPDYSLLLTFIYNGRVVGEAQVQSLDCRLVAEPSGSESSMEQVLFPKPGPLEPTQRLLSQLERGILVASNPRGLFVQRLCPIPISWNAPQAPPGPGPHLLPSNECVELFRTAYFCRDLVRYFQGLGPPPKFQVTLNFWEESHGSSHTPQNLITVKMEQAFARYLLEQTPEQQAAILSLV [IRF9]”, the percent infected by setting is: under setting [1], 95.7 ± 1.1%; under setting [2], 77.9 ± 2.2%; under setting [3], 95.77 ± 0.51%; under setting [4], 95.5 ± 0.37%; under setting [5], 94.29 ± 0.52%; under setting [6], 92.97 ± 0.35%.
Regarding “MASVAVDPQPSVVTRVVNLPLVSSTYDLMSSAYLSTKDQYPYLKSVCEMAENGVKTITSVAMTSALPIIQKLEPQIAVANTYACKGLDRIEERLPILNQPSTQIVANAKGAVTGAKDAVTTTVTGAKDSVASTITGVMDKTKGAVTGSVEKTKSVVSGSINTVLGSRMMQLVSSGVENALTKSELLVEQYLPLTEEELEKEAKKVEGFDLVQKPSYYVRLGSLSTKLHSRAYQQALSRVKEAKQKSQQTISQLHSTVHLIEFARKNVYSANQKIQDAQDKLYLSWVEWKRSIGYDDTDESHCAEHIESRTLAIARNLTQQLQTTCHTLLSNIQGVPQNIQDQAKHMGVMAGDIYSVFRNAASFKEVSDSLLTSSKGQLQKMKESLDDVMDYLVNNTPLNWLVGPFYPQLTESQNAQDQGAEMDKSSQETQRSEHKTH [ADFP]”, the percent infected under setting [1] is 91.4 ± 2%; the percent infected under setting [2] was 68 ± 2.8%; the percent infected under setting [3] came to 96.84 ± 0.14%; the percent infected under setting [4] was found to be 95.665 ± 0.052%; the percent infected under setting [5] is 88.3 ± 0.9%; the percent infected under setting [6] was 89.1 ± 1.9%.
With “MASVIPASNRSMRSDRNTYVGKRFVHVKNPYLDLMDEDILYHLDLGTKTHNLPAMFGDVKFVCVGGSPNRMKAFALFMHKELGFEEAEEDIKDICAGTDRYCMYKTGPVLAISHGMGIPSISIMLHELIKLLHHARCCDVTIIRIGTSGGIGIAPGTVVITDIAVDSFFKPRFEQVILDNIVTRSTELDKELSEELFNCSKEIPNFPTLVGHTMCTYDFYEGQGRLDGALCSFSREKKLDYLKRAFKAGVRNIEMESTVFAAMCGLCGLKAAVVCVTLLDRLDCDQINLPHDVLVEYQQRPQLLISNFIRRRLGLCD [UPP2]”, the percent infected by setting is: under setting [1], 74.9 ± 4.2%; under setting [2], 43.1 ± 2.3%; under setting [3], 89.79 ± 0.72%; under setting [4], 93.4 ± 1.3%; under setting [5], 83.4 ± 1.3%; under setting [6], 88.3 ± 1.5%.
With “MATERSRSAMDSPVPASMFAPEPSSPGAARAAAAAARLHGGFDSDCSEDGEALNGEPELDLTSKLVLVSPTSEQYDSLLRQMWERMDEGCGETIYVIGQGSDGTEYGLSEADMEASYATVKSMAEQIEADVILLRERQEAGGRVRDYLVRKRVGDNDFLEVRVAVVGNVDAGKSTLLGVLTHGELDNGRGFARQKLFRHKHEIESGRTSSVGNDILGFDSEGNVVNKPDSHGGSLEWTKICEKSTKVITFIDLAGHEKYLKTTVFGMTGHLPDFCMLMVGSNAGIVGMTKEHLGLALALNVPVFVVVTKIDMCPANILQETLKLLQRLLKSPGCRKIPVLVQSKDDVIVTASNFSSERMCPIFQISNVTGENLDLLKMFLNLLSPRTSYREEEPAEFQIDDTYSVPGVGTVVSGTTLRGLIKLNDTLLLGPDPLGNFLSIAVKSIHRKRMPVKEVRGGQTASFALKKIKRSSIRKGMVMVSPRLNPQASWEFEAEILVLHHPTTISPRYQAMVHCGSIRQTATILSMDKDCLRTGDKATVHFRFIKTPEYLHIDQRLVFREGRTKAVGTITKLLQTTNNSPMNSKPQQIKMQSTKKGPLTKRDEGGPSGGPAVGAPPPGDEASSVGAGQPAASSNLQPQPKPSSGGRRRGGQRHKVKSQGACVTPASGC [GTPBP1]”, the percent infected was determined as 93.61 ± 0.15% under setting [1]; 64.4 ± 7.3% under setting [2]; 97.42 ± 0.24% under setting [3]; 96.28 ± 0.23% under setting [4]; 88.74 ± 0.67% under setting [5]; 90.6 ± 0.93% under setting [6].
“MAVMEMACPGAPGSAVGQQKELPKAKEKTPPLGKKQSSVYKLEAVEKSPVFCGKWEILNDVITKGTAKEGSEAGPAAISIIAQAECENSQEFSPTFSERIFIAGSKQYSQSESLDQIPNNVAHATEGKMARVCWKGKRRSKARKKRKKKSSKSLAHAGVALAKPLPRTPEQESCTIPVQEDESPLGAPYVRNTPQFTKPLKEPGLGQLCFKQLGEGLRPALPRSELHKLISPLQCLNHVWKLHHPQDGGPLPLPTHPFPYSRLPHPFPFHPLQPWKPHPLESFLGKLACVDSQKPLPDPHLSKLACVDSPKPLPGPHLEPSCLSRGAHEKFSVEEYLVHALQGSVSSGQAHSLTSLAKTWAARGSRSREPSPKTEDNEGVLLTEKLKPVDYEYREEVHWATHQLRLGRGSFGEVHRMEDKQTGFQCAVKKVRLEVFRAEELMACAGLTSPRIVPLYGAVREGPWVNIFMELLEGGSLGQLVKEQGCLPEDRALYYLGQALEGLEYLHSRRILHGDVKADNVLLSSDGSHAALCDFGHAVCLQPDGLGKSLLTGDYIPGTETHMAPEVVLGRSCDAKVDVWSSCCMMLHMLNGCHPWTQFFRGPLCLKIASEPPPVREIPPSCAPLTAQAIQEGLRKEPIHRVSAAELGGKVNRALQQVGGLKSPWRGEYKEPRHPPPNQANYHQTLHAQPRELSPRAPGPRPAEETTGRAPKLQPPLPPEPPEPNKSPPLTLSKEESGMWEPLPLSSLEPAPARNPSSPERKATVPEQELQQLEIELFLNSLSQPFSLEEQEQILSCLSIDSLSLSDDSEKNPSKASQSSRDTLSSGVHSWSSQAEARSSSWNMVLARGRPTDTPSYFNGVKVQIQSLNGEHLHIREFHRVKVGDIATGISSQIPAAAFSLVTKDGQPVRYDMEVPDSGIDLQCTLAPDGSFAWSWRVKHGQLENRP [MAP3K14]”: the percent infected by setting is: under setting [1], 96.4 ± 1.2%; under setting [2], 76.4 ± 1.8%; under setting [3], 97.1 ± 0.15%; under setting [4], 92.2 ± 0.5%; under setting [5], 86.1 ± 1.7%; under setting [6], 80.9 ± 2.1%.
As to “MDAPHSKAALDSINELPENILLELFTHVPARQLLLNCRLVCSLWRDLIDLMTLWKRKCLREGFITKDWDQPVADWKIFYFLRSLHRNLLRNPCAEEDMFAWQIDFNGGDRWKVESLPGAHGTDFPDPKVKKYFVTSYEMCLKSQLVDLVAEGYWEELLDTFRPDIVVKDWFAARADCGCTYQLKVQLASADYFVLASFEPPPVTIQQWNNATWTEVSYTFSDYPRGVRYILFQHGGRDTQYWAGWYGPRVTNSSIVVSPKMTRNQASSEAQPGQKHGQEEAAQSPYRAVVQIF [FBXO6]”, the percent infected was determined as 95.42 ± 0.3% under setting [1]; 65.4 ± 1.8% under setting [2]; 94.14 ± 0.54% under setting [3]; 94.48 ± 0.2% under setting [4]; 90.9 ± 1.1% under setting [5]; 91.46 ± 0.7% under setting [6].
As for “MDENNGLLLLELNPPNPWDLQPRSPEELAFGEVQITYLTHACMDLKLGDKRMVFDPWLIGPAFARGWWLLHEPPSDWLERLCQADLIYISHLHSDHLSYPTLKKLAGRRPDIPIYVGNTERPVFWNLNQSGVQLTNINVVPFGIWQQVDKNLRFMILMDGVHPEMDTCIIVEYKGHKILNIVDCTRPNGGRLPMKVALMMSDFAGGASGFPMTFSGGKFTEEWKAQFIKTERKKLLNYKARLVKNLQPRIYCPFAGYFVESHPSDKYIKETNTKNDPNELNNLIKKNSDVITWTPRPGATLDLGRMLKDRTDSKGIIEPPEGTKIYKDSWDFEPYLEILNAALGDEIFLHSSWIKEYFTWAGFKDYNLVVRMIETDEDFNPFPGGYDYLVDFLDLSFPKERPQREHPYEEIHSRVDVIRHVVKNGLLWDELYIGFQTRLQRDPDIYHHLFWNHFQIKLPLTPPNWKSFLMCCEQNGPVILQFSTERTNEPNRNKFSVENKA [CMAH]”, the percent infected amounted to 94.7 ± 1.2% under setting [1]; 75.3 ± 1.9% under setting [2]; 95.1 ± 0.29% under setting [3]; 94.26 ± 0.25% under setting [4]; 93.1 ± 0.62% under setting [5]; 92.979 ± 0.089% under setting [6].
Take “MDFKIEHTWDGFPVKHEPVFIRLNPGDRGVMMDISAPFFRDPPAPLGEPGKPFNELWDYEVVEAFFLNDITEQYLEVELCPHGQHLVLLLSGRRNVWKQELPLSFRMSRGETKWEGKAYLPWSYFPPNVTKFNSFAIHGSKDKRSYEALYPVPQHELQQGQKPDFHCLEYFKSFNFNTLLGEEWKQPESDLWLIEKCDI [C4orf33]”: the percent infected under setting [1] is 96.1 ± 1.3%; the percent infected under setting [2] came out at 85.8 ± 1.1%; the percent infected under setting [3] came out at 96.38 ± 0.37%; the percent infected under setting [4] worked out at 94.84 ± 0.39%; the percent infected under setting [5] came to 93.81 ± 0.1%; the percent infected under setting [6] was determined as 93.56 ± 0.3%.
With “MDSRVSELFGGCCRPGGGPAVGGTLKARGAGSSSGCGGPKGKKKNGRNRGGKANNPPYLPPEAEDGNIEYKLKLVNPSQYRFEHLVTQMKWRLQEGRGEAVYQIGVEDNGLLVGLAEEEMRASLKTLHRMAEKVGADITVLREREVDYDSDMPRKITEVLVRKVPDNQQFLDLRVAVLGNVDSGKSTLLGVLTQGELDNGRGRARLNLFRHLHEIQSGRTSSISFEILGFNSKGEVVNYSDSRTAEEICESSSKMITFIDLAGHHKYLHTTIFGLTSYCPDCALLLVSANTGIAGTTREHLGLALALKVPFFIVVSKIDLCAKTTVERTVRQLERVLKQPGCHKVPMLVTSEDDAVTAAQQFAQSPNVTPIFTLSSVSGESLDLLKVFLNILPPLTNSKEQEELMQQLTEFQVDEIYTVPEVGTVVGGTLSSGICREGDQLVVGPTDDGCFLELRVCSIQRNRSACRVLRAGQAATLALGDFDRALLRKGMVMVSPEMNPTICSVFEAEIVLLFHATTFRRGFQVTVHVGNVRQTAVVEKIHAKDKLRTGEKAVVRFRFLKHPEYLKVGAKLLFREGVTKGIGHVTDVQAITAGEAQANMGF [GTPBP2]”, the percent infected reads like this: under setting [1], 91.5 ± 3.9%; under setting [2], 64.4 ± 1.3%; under setting [3], 94.39 ± 0.34%; under setting [4], 94.94 ± 0.23%; under setting [5], 94 ± 1.1%; under setting [6], 93.43 ± 0.41%.
As to “MEKGPVRAPAEKPRGARCSNGFPERDPPRPGPSRPAEKPPRPEAKSAQPADGWKGERPRSEEDNELNLPNLAAAYSSILSSLGENPQRQGLLKTPWRAASAMQFFTKGYQETISDVLNDAIFDEDHDEMVIVKDIDMFSMCEHHLVPFVGKVHIGYLPNKQVLGLSKLARIVEIYSRRLQVQERLTKQIAVAITEALRPAGVGVVVEATHMCMVMRGVQKMNSKTVTSTMLGVFREDPKTREEFLTLIRS [GCH1]”, the percent infected worked out at 95.976 ± 0.021% under setting [1]; 74 ± 2% under setting [2]; 95.09 ± 0.34% under setting [3]; 93.4 ± 1.6% under setting [4]; 92.6 ± 0.98% under setting [5]; 92.19 ± 0.15% under setting [6].
